biological target: SARS-CoV-2 spike receptor-binding domain (RBD) (SARS-CoV-2, UniProt P0DTC2 319-541); test: indirect ELISA, RBD coated on plate, 4PL fit

Binder | ELISA affinity
Nb93 (VHH) VHH: EVQLVESGGGLVQPGGSLRLSCAASGFTFSSYAMSWVRQAPGKGREWVAGITPGSGTFYADSVKGRFTISRDNAKNTLSLEINSLKPEDTALYYCAKCRQEFSWDFSSRDPDDFDYWGQGTQVTVSS | 1.15 nM
Nb18 (VHH) VHH: DVQLVESGGGLVQAGGSLRLSCAASGRTFSSYNVGWFRQAPGKEREFVAFIRWSGTSTYYADSVKGRFTISRDNAKNTVYLQMNSLKPEDTAVYYCAATSRTMIHTSQAMPINWDYWGQGTQVTVSS | 0.57 nM
Nb84 (VHH) VHH: DVQLVESGGGLVQAGGSLRLSCAASGRTFSSYSMGWFRQAPGKEREFVAFIRWSGTSTYYADSVKGRFTISRDNAKNTVYLQMNSLKPDDTAVYYCAASSRTMNTISQTMRINWDYWGQGTQVTVSS | 0.53 nM
Nb100 (VHH) VHH: EVQLVESGGGLVQAGGSLRLSCAASGLTFSSYNMGWFRQAPGKEREFVAFIRWSGTSTYYADSVKGRFTISRDTAKNTVYLQMNSLKLEDTAVYYCAATSRTMIHTSQTMRINWDYWGQGTQVTVSS | 1.04 nM
Nb39 (VHH) VHH: QVQLVESGGGLVQAGGSLRLSCAASGRTFRFSAIDWYRQAPGQQREFVASISTSGRISYGHFVKGRFTISRDNAKNTMYLQMNSLKPEDTAVYYCHLAQPDVFGGGDYWGQGTQVTVSS | 1.49 nM
Nb55 (VHH) VHH: DVQLVESGGGLVQAGGSLRLSCAASGRTFGSTMAWFRQAPGKERDFVAAITWSADRISYADSVKGRFTISRDNDKNIVHLQMNSLKPEDTAVYVCAARASSNTYDDPRSFAFWGQGTQVTVSS | 2.24 nM
Nb90 (VHH) VHH: HVQLVESGGGLVQAGGSLRLSCAVSGRTVSSYVMGWFRQAPGKEREFVAGIGRTGMTITADSVKGRFTISRDNAKNLVYLQMNSLKSEDTAVYWCAAGVRDFAPRIDSYDYWGQGTQVTVSS | 4.03 nM
Nb42 (VHH) VHH: HVQLVESGGGLVQAGESLRLSCVASGSIFSINAMGWFRQAPGKQRELVASISNIGTTIYAESVKGRFTISRDNAKNTADLQMNSLKPEDTAIYYCNLRQGCSYNGCDEYWGQGTQVTVSS | 0.66 nM
Nb80 (VHH) VHH: HVQLVESGGGLVQPGGSLRLSCAASGNFFLINVMSWWRQAPGNEHELHELVATITSDGRTNYGDAVQGRFTISRDNAKNTLYLQMNSLKPEDTAVYYCYAQGQGNREYWGQGTQVTVSS | 5.09 nM
Nb6 (VHH) VHH: HVQLVESGGGLVQAGGSLRLSCAASGRTFSTHATGWFRQAPGKEREFLATSVWLDDISRDSTYYAESVKGRFSISRDNAKDTVYLQMNSLKPEDTAVYYCAVKQRVGPGIMSAPTYDYWGQGTQVTVSS | 0.57 nM
Nb3 (VHH) VHH: HVQLVESGGGLVQAGGSLRLSCVASGSGFEPNAMGWYRQAPGKQRELVAGITSGGNTNYADSVKGRFTISRDNVKNTVYLQMNSLKPEDTAVYYCNAVAPRINPRGSPTNYWGQGTQVTVSS | 0.48 nM
Nb4 (VHH) VHH: QVQLVESGGGLVQAGGSLRLSCVASGSGFEPNAMGWYRQAPGKQRELVAGITSGGNANYADSVKGRFTISRDNVKNTVYLQMNSLKPEDTAVYYCNAVGPRFNPRGSPTNYWGQGTQVTVSS | 0.67 nM
Nb63 (VHH) VHH: QVQLVESGGGLVQAGGSLRLSCVASGSGFEPNAMGWYRQAPGKQRELVAGITSGGNANYADSVKGRFTISRDNVKNTVYLQMNSLKPEDTAVYYCQGPACSGSGCRNYWGQGTQVTVSS | 0.84 nM
Nb2 (VHH) VHH: QVQLVESGGGLVQAGGSLRLSCAASGRTFSIYNMGWFRQAPGKEREFVIHMNWSNGNTATAASVKDRFTISRDNAKNTVYLQMSSLKPEDTAVYYCHATTNDYDYWGQGTQVTVSS | 4.82 nM
Nb92 (VHH) VHH: HVQLVESGGGLVQAGGSLRLSCAASGRTFSAYGMGWFRQAPGKEREFVAGIARSGSEYYGDSVKGRFTISRDNAKNTVYLQMASLKAEDTGVYYCAADPTILYHALSQRTQNYRYWGPGTQVTVSS | 4.92 nM
Nb41 (VHH) VHH: DVQLVESGGGLVQAGGSLRLSCAASGFTFSNYVMYWGRQAPGKGREWVSGIDSDGSDTAYASSVKGRFTISRDNAKKTLYLQMNDLKPEDTALYYCVKSKDRYGSPWTRSEFEDYWGQGTQVTVSS | 0.2 nM
Nb76 (VHH) VHH: DVQLVESGGGLVQAGGSLRLSCAVSGRTFSISTMGWFRQAPGKERLFVAGITWHDGSTNYADSVKGRFTISRDNAKNTVYLQMNSLKPEDTALYYCAARKSINYVQEYDYWGRGTQVTVSS | 0.17 nM

Binder | ELISA affinity
Nb12 (VHH) VHH: HVQLVESGGGLVQAGGSLRLTCAASGGTFSTSTMDMGWFRQAPGKEREFVAVDSWNDGRAYYADSVKGRFTISRDSAKTTLYLQMNSLKPEDTAVYYCAARTERGVYDYWGRGTQVTVSS | 539 nM
Nb74 (VHH) VHH: HVQLVESGGGLVQAGGSLRLSCAASGRTFSSHAMAWFRQAPGKEREFVAGISWSGPYYVDSVKGRFTISTDNAKNTVYLQMNSLTPEDTAVYYCASSRGPNLYPHIGDVEYWGQGTQVTVSS | 67.1 nM
Nb24 (VHH) VHH: QVQLVESGGGLVQAGGSLRLTCAASGGTFSTSTMDMGWFRQAPGKEREFVALDSWNGGRTYYADSVKGRFTISRDNAKNTLYLQMNSLKPEDTAVYYCAADTYSNYEKDDSWGYWGQGTQVTVSS | 0.77 nM
Nb29 (VHH) VHH: HVQLVESGGGLVQAGGSLRLTCAASGGTFSTSTMDMGWFRQAPGKEREFVAVDSWNDGRAYYADSVKGRFTISRDNAKNTLYLQMNSLKPEDTAVYYCAAETYSNYEKAYSWGYWGQGTQVTVSS | 1.25 nM
Nb32 (VHH) VHH: DVQLVESGGGLVQAGGSLRLSCAASGRTFSSDTMDMGWFRQAPGKEREFVALHSWNGGKTYYADSVKGRFTISRDNAKNTLYLQMNNLKPEDTAVYYCAAETYTLYEKDSSWGYWGQGTQVTVSS | 2.17 nM
Nb26 (VHH) VHH: HVQLVESGGGLVQAGGSLRLTCAASGRTFSISTMDMGWFRQAPGKEREFVAADAWNDGRTYYADSVKGRFTISRDNAKNTLYLQMNSLKPEDTAVYYCTADTYSNYKKDDSWGYWGQGTQVTVSS | 0.92 nM
Nb60 (VHH) VHH: HVQLVESGGGLVQAGDSLRLSCAASERTNINYAMGWFRQAPGKERDFVAAIGWNGSIIKYAESVKGRFTISRDDAKNTVSLQMNSLKPEDTAVYYCAARIGSIANLQPREYEFAYWGQGTQVTVSS | 138 nM
Nb58 (VHH) VHH: QVQLVESGGGLVQAGGSLRLSCAASGRDFSSTVMGWFRQAPGKERELVAWMTVTYDITYYADSVKGRFTISKDNAKNTVYLQANSLKPDDTAVYYCASGALRVGSFSPDYWGQGTQVTVSS | 2.68 nM
Nb91 (VHH) VHH: HVQLVESGGGLVQPGGSLRLSCAASGLTLNDYAIGWFRQAPGKEREGVSCISSSDGTTYYADSVKGRFTISRDNAKNTVYLQMNSLKPEDTAVYYCATDIAPFYCSWPLRTRLVEYWGQGTQVTVSS | 1.28 nM
Nb68 (VHH) VHH: QVQLVESGGGLVQAGGSLRLSCAASGGTLRSYNMGWFRQGPGKEREFVAAISWTGLGTYYGDSVKGRFTISRDVIKNTLYLQMDSLKPEDTAIYYCAADSSTSRLHSAGSDYRYWGQGTQVTVSS | 6.11 nM
Nb10 (VHH) VHH: DVQLVESGGGLVQAGGSLKLSCTASESTFNFNHIDWYRQAPGKQRESVAVITNTDVTNYADSVKGRFTISRDNAKNTVYLQMNSLKPEDTAVYLCNAWRFGPTGVKVDYWGQGTQVTVSS | 0.24 nM
Nb46 (VHH) VHH: QVQLVESGGGLVQAGGSLRLSCAVSGSTLGINAIGWYRQPPGKQRELVASISSLGTTLYAESVKGRFAISRDNAKNTGYLQMNSLKPDDTAVYYCNMRTPYMRDYWGQGTQVTVSS | 25.9 nM
Nb37 (VHH) VHH: QVQLVESGGGLVQTGGSLRLSCAASGRTFSNYVMGWFRQAPGKEREFVSSIEWNSENTFYANSVKGRFTISRDNAKNTVYLQMNSLKAEDTAVYYCAADRGSSYYYTRASEYTYWGQGTQVTVSS | 0.38 nM
Nb43 (VHH) VHH: EVQLVESGGGLVQAGGSLRLTCAASGRTFSSSTMDMGWFRQAPGKEREFVAVDAWNDGRTYYADSVKGRFTISRDNAKNTLYLQMNSLKPEDTAIYYCNLRQGCSYNGCDEYWGQGTQVTVSS | 664 nM
Nb62 (VHH) VHH: HVQLVESGGGLVQAGGSLRLTCAASGRTFSSSTMDMGWFRQAPGKEREFVAVDAWNDGRTYYADSVKGRFTISRDNAKNTLYLQMNSLKPGDTAVYYCHAVDVSVGGDYWGQGTQVTVSS | 85.7 nM
Nb15 (VHH) VHH: EVQLVESGGGLVAAGGSLRLSCVPSTNIFSANAMGWYRQAPGKQRELVASITSGGNTNYADSVKGRFTISRDNADTVILQMNSLKPEDTAVYYCKGTAYSTTYNSVRDYWGQGTQVTVSS | 0.47 nM
